The target of assay [1] is HLA-A*26:01. Nature of the assay: IEDB peptide-MHC binding, purified MHC/competitive/fluorescence; filed as Kd, often an IC50 or EC50 that approximates it; ≥ and ≤ were set here for values at or beyond the usual limits of such assays. The note with it: source organism: Zaire ebolavirus.
Assay [2] deals with HLA-A*69:01. Described as above. The note with it: source organism: Zaire ebolavirus.
The target in assay [3] is HLA-B*39:01. The assay is described as above. The note with it: source organism: Zaire ebolavirus.
Assay [4] has as its target HLA-B*27:03. Described as above. The settings on record: source organism: Zaire ebolavirus.
Assay [5] has as its target HLA-B*35:01. The assay is described as above.
The target in assay [6] is HLA-A*02:01. The assay is described as above. The settings on record: source organism: Zaire ebolavirus.
The target of assay [7] is HLA-A*68:02. Nature of the assay: IEDB peptide-MHC binding, purified MHC/direct/fluorescence; filed as Kd, often an IC50 or EC50 that approximates it; ≥ and ≤ were set here for values at or beyond the usual limits of such assays.
Assay [8] has as its target HLA-A*02:03. Described as above.
Assay [9] has as its target HLA-A*02:12. The assay is described as above.
Assay [10] addresses HLA-C*14:02. Described as above. The note with it: source organism: Zaire ebolavirus.
In assay [11] the target is HLA-A*02:16. Described as above.
In assay [12] the target is HLA-A*02:19. The description is as above.
In assay [13] the target is HLA-B*15:01. The description is as above.
Assay [14] deals with HLA-B*45:06. Nature of the assay: IEDB peptide-MHC binding, purified MHC/competitive/fluorescence; filed as Kd, often an IC50 or EC50 that approximates it; ≥ and ≤ were set here for values at or beyond the usual limits of such assays. The note with it: source organism: Salmonella enterica subsp. enterica serovar Typhi.
Assay [15] deals with HLA-B*51:01. The description is as above. The settings on record: source organism: Salmonella enterica subsp. enterica serovar Typhi.
Assay [16] has as its target HLA-B*08:01. Described as above.
Assay [17] deals with HLA-B*15:42. The assay is described as above. The settings on record: source organism: Salmonella enterica subsp. enterica serovar Typhi.
The target of assay [18] is HLA-B*83:01. The assay is described as above. The settings on record: source organism: Salmonella enterica subsp. enterica serovar Typhi.
Assay [19] has as its target HLA-A*68:23. Described as above. The settings on record: source organism: Salmonella enterica subsp. enterica serovar Typhi.
Assay [20] deals with HLA-C*05:01. The assay is described as follows: IEDB peptide-MHC binding, purified MHC/direct/fluorescence; filed as Kd, often an IC50 or EC50 that approximates it; ≥ and ≤ were set here for values at or beyond the usual limits of such assays. The settings on record: source organism: Salmonella enterica subsp. enterica serovar Typhi str. CT18.
In assay [21] the target is HLA-B*27:05. Nature of the assay: IEDB peptide-MHC binding, purified MHC/competitive/fluorescence; filed as Kd, often an IC50 or EC50 that approximates it; ≥ and ≤ were set here for values at or beyond the usual limits of such assays. The note with it: source organism: Brucella melitensis bv. 1 str. 16M.
Assay [22] deals with HLA-A*01:01. Described as above. The note with it: source organism: Brucella melitensis bv. 1 str. 16M.
For assay [23], the target named is HLA-A*30:02. The assay is described as above. The settings on record: source organism: Brucella melitensis bv. 1 str. 16M.
Assay [24] deals with HLA-B*53:01. The description is as above. The settings on record: source organism: Brucella melitensis bv. 1 str. 16M.
Assay [25] deals with HLA-B*44:02. The description is as above. The note with it: source organism: Brucella melitensis bv. 1 str. 16M.
The target in assay [26] is HLA-B*14:02. Described as above. The note with it: source organism: Brucella melitensis bv. 1 str. 16M.
Assay [27] deals with HLA-A*11:01. The assay is described as above. The settings on record: source organism: Brucella melitensis bv. 1 str. 16M.
Assay [28] addresses HLA-B*40:01. The assay is described as above. The settings on record: source organism: Brucella melitensis bv. 1 str. 16M.
The target in assay [29] is HLA-A*66:01. The assay is described as above. The note with it: source organism: Brucella melitensis bv. 1 str. 16M.
Assay [30] concerns the target HLA-B*58:01. The description is as above. The settings on record: source organism: Brucella melitensis bv. 1 str. 16M.
In assay [31] the target is HLA-B*46:01. The assay is described as follows: IEDB peptide-MHC binding, purified MHC/direct/fluorescence; filed as Kd, often an IC50 or EC50 that approximates it; ≥ and ≤ were set here for values at or beyond the usual limits of such assays. The note with it: source organism: Brucella melitensis bv. 1 str. 16M.
The target of assay [32] is HLA-A*26:01. The assay is described as above. The settings on record: source organism: Brucella melitensis bv. 1 str. 16M.
Assay [33] concerns the target HLA-B*51:01. The description is as above. The note with it: source organism: Brucella melitensis bv. 1 str. 16M.
For assay [34], the target named is HLA-B*39:01. The description is as above. The note with it: source organism: Brucella melitensis bv. 1 str. 16M.
Assay [35] has as its target HLA-A*29:02. The assay is described as above. The note with it: source organism: Brucella melitensis bv. 1 str. 16M.
The target in assay [36] is HLA-B*18:01. Described as above. The note with it: source organism: Brucella melitensis bv. 1 str. 16M.
The target of assay [37] is HLA-A*24:03. Described as above. The settings on record: source organism: Brucella melitensis bv. 1 str. 16M.
The target in assay [38] is HLA-B*57:01. The description is as above. The note with it: source organism: Brucella melitensis bv. 1 str. 16M.
The target in assay [39] is HLA-B*15:17. The description is as above. The note with it: source organism: Brucella melitensis bv. 1 str. 16M.
The target in assay [40] is HLA-B*27:03. The assay is described as above. The settings on record: source organism: Brucella melitensis bv. 1 str. 16M.
Assay [41] concerns the target HLA-A*23:01. The description is as above. The note with it: source organism: Brucella melitensis bv. 1 str. 16M.
In assay [42] the target is HLA-A*02:11. The assay is described as above. The settings on record: source organism: Brucella melitensis bv. 1 str. 16M.
The target in assay [43] is HLA-A*03:01. The assay is described as above. The note with it: source organism: Brucella melitensis bv. 1 str. 16M.
In assay [44] the target is HLA-A*02:01. The description is as above. The settings on record: source organism: Brucella melitensis bv. 1 str. 16M.
[45] abbreviates: source organism: Zaire ebolavirus.
[46] abbreviates: source organism: Salmonella enterica subsp. enterica serovar Typhi.
The mark [47] stands for this setting: source organism: Brucella melitensis bv. 1 str. 16M.

The values below come from the Immune Epitope Database (IEDB).

Broadly, the Kd is the equilibrium constant for the complex coming apart. A low value points to tighter binding. As to KVYWAGIEF, the Kd was not below 20 µM in assay [1]; not below 20 µM in [2]; not below 20 µM in assay [3]; not below 20 µM in [4]; 114 nM in assay [5] (setting [45]); not below 20 µM in assay [6]. Besides, the Kd in [7] (setting [45]) was not below 20 µM; in assay [8] (setting [45]), not below 20 µM; in assay [9] (setting [45]) it was not below 20 µM; in assay [10] it was 18 nM; in assay [11] (setting [45]) it was not below 20 µM; in assay [12] (setting [45]), not below 20 µM. The sequence also yielded a Kd in assay [13] (source organism: Ebola virus - Gabon (1994-1997)) of 133 nM.
For MPFIATPPV, the Kd in assay [14] is not below 5 µM; in [15], 567 nM; in [16] (setting [46]), 1440 nM; in assay [17], not below 5 µM; in assay [5] (setting [46]) it was not above 0.1 nM; in assay [18], 62.6 nM. Besides, the Kd in [19] is 2.1 nM; in [20], not below 20 µM.
Turning to TTRAVNMEV, the Kd is not below 5 µM in assay [21]; not below 5000 nM in [16] (setting [47]); not below 5 µM in assay [22]; not below 5 µM in assay [23]; not below 5 µM in assay [24]; not below 5 µM in assay [25]. The Kd is not below 5 µM in assay [26]; not below 5 µM in assay [27]; not below 5 µM in assay [28]; not below 5 µM in assay [29]; not below 5 µM in assay [30]; not below 20 µM in [31]. For the same sequence, the Kd in assay [32] was not below 20 µM; in [7] (setting [47]) it was not above 0.001 µM; in assay [33], not below 20 µM; in assay [34] it was not below 20 µM; in assay [35], not below 20 µM; in assay [8] (setting [47]), not below 20 µM. Besides, the Kd in assay [9] (setting [47]), in assay [36], in assay [37], in assay [38], in assay [11] (setting [47]) and in [39] was not below 20 µM each time. Moreover, the Kd in assay [40] was not below 20 µM; in [41], not below 20 µM; in [12] (setting [47]) it was not below 20 µM; in assay [42] it was not below 20 µM; in [43] it was not below 20 µM; in assay [13] (setting [47]), not below 20000 nM. For the same sequence, in [44], the Kd was not below 20 µM.
